Assay [1] has as its target FGFR3 (as measured by BIAcore, Table 1) (UniProt P22607). In words: BIAcore. (In general: In SPR one partner is held on a chip, and binding of the other changes the refractive index at the surface.)
Assay [2] has the same target. In words: BIAcore (receptor not given).
Assay [3] addresses FGFR3-G394D expressed on B9 cells, P22607. In words: cell-based or functional assay.

Where a chain is given by its changes, count along the chain named.

For seven molecules, Kd, koff and IC50 of FGF-stimulated growth of B9 cells expressing G394D-FGFR3 results are on record in patent publication US20090175866A1, “TREATMENT OF B-CELL MALIGNANCIES” (priority 2004, published 2009).

FGFR3-G394D expressed on B9 cells, P22607, sequence (P22607 23-806, stated change not applied): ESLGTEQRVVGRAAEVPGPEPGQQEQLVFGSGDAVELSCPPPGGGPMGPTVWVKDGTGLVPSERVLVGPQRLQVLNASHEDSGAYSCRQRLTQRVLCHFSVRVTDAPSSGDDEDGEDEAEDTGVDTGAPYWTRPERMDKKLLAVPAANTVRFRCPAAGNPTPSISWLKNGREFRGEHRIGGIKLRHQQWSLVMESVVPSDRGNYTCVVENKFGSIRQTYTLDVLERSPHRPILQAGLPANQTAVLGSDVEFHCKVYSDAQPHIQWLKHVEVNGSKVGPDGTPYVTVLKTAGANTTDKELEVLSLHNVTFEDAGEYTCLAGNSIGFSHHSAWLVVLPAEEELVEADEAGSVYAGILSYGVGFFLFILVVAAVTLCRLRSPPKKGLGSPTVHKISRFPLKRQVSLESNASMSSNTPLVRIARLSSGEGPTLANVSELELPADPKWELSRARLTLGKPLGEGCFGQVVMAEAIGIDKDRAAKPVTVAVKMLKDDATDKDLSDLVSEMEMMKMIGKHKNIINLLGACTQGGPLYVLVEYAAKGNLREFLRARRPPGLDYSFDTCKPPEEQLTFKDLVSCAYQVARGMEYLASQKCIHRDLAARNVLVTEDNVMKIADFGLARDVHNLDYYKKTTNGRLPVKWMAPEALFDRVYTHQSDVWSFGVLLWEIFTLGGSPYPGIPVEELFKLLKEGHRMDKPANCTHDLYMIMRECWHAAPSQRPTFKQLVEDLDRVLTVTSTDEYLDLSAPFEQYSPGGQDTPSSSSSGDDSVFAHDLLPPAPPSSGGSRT

B1: PRO-029 (Fab, V domains shown)
VH: QVQLVQSGAEVKKPGASVKVSCKASGYTFTSYYMHWVRQAPGQGLEWMGWINPNSGGTNYAQKFQGRVTMTRDTSISTAYMELSSLRSEDTAVYYCARTWQYSYFYYLDGGYYFDIWGQGTLVTVSS
VL: DIVLTQSPATLSLSPGERATLSCRASQSVSSSYLAWYQQKPGQAPRLLIYGASSRATGVPARFSGSGSGTDFTLTISSLEPEDFATYYCQQTNNAPVTFGQGTKVEIKR
One may read the Kd as the constant that tells how readily two partners part at equilibrium. The low end stands for higher affinity, the high end for lower affinity. A word on the koff: it is a measure of how fast the partners let go of each other. Low values mean a long-lived complex, high ones a short-lived complex. As to B1, the dissociation constant (Kd) in assay [1] stood at 6 nM. Also, the dissociation rate constant (koff) in assay [2] amounted to 0.0014 s⁻¹.

B2: PRO-026 (Fab, V domains shown)
VH: QVQLVQSGAEVKKPGASVKVSCKASGYTFTSYYMHWVRQAPGQGLEWMGWINPNSGGTNYAQKFQGRVTMTRDTSISTAYMELSSLRSEDTAVYYCARGYWYAYFTYINYGYFDNWGQGTLVTVSS
VL: DIALTQPASVSGSPGQSITISCTGTSSDVGGYNYVSWYQQHPGKAPKLMIYDVSNRPSGVSNRFSGSKSGNTASLTISGLQAEDEADYYCQSYDNNSDVVFGGGTKLTVLG
In assay [1], B2 had a Kd of 4 nM. The koff in assay [2] was 0.0005 s⁻¹.

B3: PRO-055 (Fab, V domains shown)
VH: QVQLVQSGAEVKKPGASVKVSCKASGYTFTSYYMHWVRQAPGQGLEWMGWINPNSGGTNYAQKFQGRVTMTRDTSISTAYMELSSLRSEDTAVYYCARSMNSTMYWYLRRVLFDHWGQGTLVTVSS
VL: B2 VL with N95M, N96Y, S97N, D98Y, V99I
In the case of B3, in assay [1], the Kd stood at 2.9 nM. Moreover, the koff in assay [2] was 0.00074 s⁻¹.

B4: PRO-002 (Fab, V domains shown)
VH: QVQLVQSGAEVKKPGASVKVSCKASGYTFTSYYMHWVRQAPGQGLEWMGWINPNSGGTNYAQKFQGRVTMTRDTSISTAYMELSSLRSEDTAVYYCARDFLGYEFDYWGQGTLVTVSS
VL: DIELTQPPSVSVAPGQTARISCSGDALGDKYASWYQQKPGQAPVLVIYDDSDRPSGIPERFSGSNSGNTATLTISGTQAEDEADYYCQSYDYSADYVFGGGTKLTVLG
In assay [1], B4 yielded a Kd of 37 nM. The koff in assay [2] amounted to 0.02 s⁻¹.

B5: PRO-001 Fab (Fab, V domains shown)
VH: QVQLQQSGPGLVKPSQTLSLTCAISGDSVSSNSAAWNWIRQSPGRGLEWLGRTYYRSKWYNDYAVSVKSRITINPDTSKNQFSLQLNSVTPEDTAVYYCARSYYPDFDYWGQGTLVTVSS
VL: DIELTQPPSVSVAPGQTARISCSGDALGDKYASWYQQKPGQAPVLVIYDDSDRPSGIPERFSGSNSGNTATLTISGTQAEDEADYYCQSYDGPDLWVFGGGTKLTVLGQ
In assay [3], B5 showed an IC50 of FGF-stimulated growth of B9 cells expressing G394D-FGFR3 of 3 mg/L.

B6: PRO-054 (Fab, V domains shown)
VH: QVQLVQSGAEVKKPGASVKVSCKASGYTFTSYYMHWVRQAPGQGLEWMGWINPNSGGTNYAQKFQGRVTMTRDTSISTAYMELSSLRSEDTAVYYCARNMAYTNYQYVNMPHFDYWGQGTLVTVSS
VL: DIELTQPPSVSVAPGQTARISCSGDALGDKYASWYQQKPGQAPVLVIYDDSDRPSGIPERFSGSNSGNTATLTISGTQAEDEADYYCQSYDYFKLVFGGGTKLTVLG
The molecule B6 showed a Kd in assay [1] of 3.7 nM. Also, the koff in assay [2] was found to be 0.002 s⁻¹.

B7: PRO-012 (Fab, V domains shown)
VH: QVQLKESGPALVKPTQTLTLTCTFSGFSLSTSGVGVGWIRQPPGKALEWLALIDWDDDKYYSTSLKTRLTISKDTSKNQVVLTMTNMDPVDTATYYCARYHSWYEMGYYGSTVGYMFDYWGQGTLVTVSS
VL: B6 VL with Y92F, F93D, K94F, L95A
For the molecule B7, in assay [1], the equilibrium dissociation constant (Kd) turned out to be 14 nM. The molecule further had a koff in assay [2] of 0.0023 s⁻¹.
